Assay: soluble on expression in E. coli; label from the status in PepcDB or PDB records

Soluble on expression in E. coli, not soluble:
MGSDKIHHHHHHMETPRREAFRYHEVEQHVLRLIDSKQYPPGSRLPSLRAVARTLSASLATVCHAYEELERRGVVESRPRSGYYVRTLPSPLPVPHSAPAEEEEPREANRSRLIATVLEAVGNPQMAPFGVVSPDPSLLPGKKLGQILAELSRRNAEQCVAYETIAGNAEYRRQIAKRACEDGMPTRASEVVATTGAMEALYIALRVLTRPGDNVLIQSPTYYCFLQLLETLGLRAVEIPSDPKHGINPADLTKALSTFEVAACILSGNFNNPDGALTPDAAKREIVDILAARGIPLVDDDVSADLHFDAQRPASFKQYDKKGLVVFCSSFSKTIAPGYRAGWMLPGRFMEKALEVKATTNVCCATPTQAAVGEFMRLGLYDRQLKKLRSAFQTQICAMHECIGSAFPDGTRVTSPRGGGVLWVELPAAVNGVELFFKARARRVGIAPGSIFSTRDRFSNYIRLSCCGIWNPRMEEALRDLGRLARELT
MGSDKIHHHHHHMEVKVGLAPMAGYTDSAFRTLAFEWGADFAFSEMVSAKGFLMNSQKTEELLPQPHERNVAVQIFGSEPNELSEAARILSEKYKWIDLNAGCPVRKVVKKGAGGALLKDLRHFRYIVRELRKSVSGKFSVKTRLGWEKNEVEEIYRILVEEGVDEVFIHTRTVVQSFTGRAEWKALSVLEKRIPTFVSGDIFTPEDAKRALEESGCDGLLVARGAIGRPWIFKQIKDFLRSGKYSEPSREEILRTFERHLELLIKTKGERKAVVEMRKFLAGYTKDLKGARRFREKVMKIEEVQILKEMFYNFIKEV
MGSDKIHHHHHHMEVTRTDKAVTLTWNKEEVSEGTVVFVSSSPKLEANSEPVFKVTNDVDHYSYDTKDIPIYFFLETPNGYYAIVSERILPLESVFNFRDMGGYASKNGKHVKWGKLYRSSNLVNINENDAALLQKLHIKWICDLRSSSEVKAQPTPAIEGILNKHIPIGTAKNEETKLPVTNDTTIYEPLMGESYRVFVQSVEGFREIFTEVLEDAKAGLPFVFHCTAGKDRTGVLGALLLTLLDVPEKTIFDDYAITNRYQDDILQEMGGIVSLFSSGTEKIDLETFRPMAEARPEYLEIAFDEMKKQYGSVANYLEKGIGITATEKAAFQKEMLE
MGSDKIHHHHHHMEWLEQLLGKEWSLVPAGGVTGDAYIAQNGQQKLFLKRNTSPFLAVLSAEGIVPKLLWTRRVTNGDVISAQKWLPGQKLEPEDMKLERVAKLLKKIHSSKALVQMIQRLGKQPLHAQELLQQLQLVLRGDIRDEETIQQGLQYLMDSLKDIEYNEFVVCHCDVNHNNWLLSDEDELFLIDWDGAVIADPALDLGMLLYWYIPRQEWSEWLGYYDIEMDESLLKRMRWYVIAQTILSIQWHTTKKQQAEAEYWHQYLQQLLASE
MGSDKIHHHHHHMEYISLNRLGGAAGCPADAEAAARFRAALPEGCKGTFAVARRIAPVIIDFDLVMQEGAASVSLAKGLGLPVVPCIRRQVERARTDFPQRLQLELTNCCNNDCVMCPRHGGHFTRKPKHMDLDLVRRALDEIAQHYNYQLQLFHIGEPLLHPRIFEILDMLEDYPTLGRKWISSKGQELTPDIMRRVLTSKVDYFNYSLLAMTPATYARIVPNGDYATVRGNLERLADLKRDLGVQRPYLRAQMIEMDEALHEIDAFLDTWADRVDLLSVNRLETFSNRIDAKVTSAIKPRESIGPRACKRLERGDLYILSNGEVTVCDTDFNGELSLGNLNETTLAEMARGARYRQIIDSHERGDYSQIELCRHCEDWNL
MGSDKIHHHHHHMEYQTRQWLEEALFDLLATKKSLHNISIAELSEHAQIARRTFYRYYHSKEQVLTNYLDRLIQDYIIELQTEKLTNFEDLVNLFFQYWSQYTESLKILQEANLLVLILQRYYDKLPAAYTTVMAPWHITNSDQRQISYDSRFIIGGLYSIFDEWLKTDHQTMPVNELVTTALNTIKRMKDS
MGSDKIHHHHHHMFIETLNLSHFRNFSEVALSPSPKINIITGDNGSGKTSLLEAIYLLGFGRSFRPGGFRQLIKEGNSGFTVFCRSQDYAIGVRRSTDGEQSLRLNGANVQRMSDVARLVPVQLLTPESVDILLEGPGQRRQFIDWGVFHVEHSFYSDWVAYTQLLKQRNSLLKQRSLPVREDRYWKEQLAYYGERISKSREKYLEELNDYIQELAKSFLSDVTMEVRLKSGWDTSQSLFDALESHTEKDKKYGFTSVGAHKADIKVIADGVEVKHRLSRGQLKTAITALKLAQGKHYQKIKRQPCIYLVDDLTSELDSKNQALLCRELENLDAQVFITAITGKQLSDKFQKSPRMFHVEHGVINE
MGSDKIHHHHHHMFLEPFFTQTDETVTISPFQASEFAKRVAEDFNPIHDESAKRFCVPGDLLFALVLSHYGLSQKMQFKFEGMVGEGVCLNFPVEVGDSFPICDSRDKTYLSVSRQGDVSRCETQIESFVRSYVSFSGLNFIHVLVPMMREHGVMINPDRPLVIYESMAFDLTTLDFDQVALELSDARLSVDGKRGDVTLEFALISDGKQVGTGVKTLVMSGLRALDEAALDGMAQFYEERRATL
MGSDKIHHHHHHMFLSSMKLGIQSYSLRKLTYENALKVMSELGISYVEAFPRHLPPSSNSVKDIINLHKENGVKVIAHGVNHLKSDKKELRSIFDFANKVEIEVITADPDEDCLNLMSDLVKEYDIKVAIHNHGPYHRWGSYKKIYEFTKNLDYRVGMCLDLAHLFRYGENPIEAVNTLRDRIHDIHVKDVNNKGEDVIVGSGILDVKGVIGKVKELNLDIPLMIEYEPEPENPLPGIVKSLEYVKKLL
MGSDKIHHHHHHMFNLTKAFLKEVPTNAEVTDFHEVHGGDINKAYSLTDAQGGRYFLKVQPNSVLAFFQHEADGLKLLGQAARVPKVIALGHVGQDQWLLLEYLNATNYGNQYSLGQDLAKIHSITSPNGQFGFDKDFKAGKTSKINTWQSSWYEFFVKQRLNVLRELLINEGKWNDDQNYKKAIEIFQSLMEKHDSRPSLLHGDFWSGNFMFDADSGQPIFIDPDVYYGDPEFDIGITTVFGGFNQDFYVGYQSTKPFQSGAERRLMFYQLYYLMVHAHLFAGSYIQAYRGKLAQIIQQ
MGSDKIHHHHHHMFSRRFRRLSPRDIIGGDVTLRRPSVAEALAVASASFIASFYVSGETILLAAGLALGGLAIASSLPARAGRVFIAGIRLEFMIPGRIVEGEVRTGRLLVENRTLNPMVLKIILKPEEGLEVEPERAEVHAPPLSRRSISLVVKPRFGRYKLIASIEEARSPLGLWSLQPEQPQTAVEVLATPKPEVVSEDISVLTGPGSLDRGREGSGLDYRSFREYQPGDDPRSIEWKLTGRRGAPVVREVEGAESSKPVRLVLAIRPQHYRKPLYNSPYGAAARRLYTISMMLAEEGVRHSVLLPGARGFQELEISTPRDTLELGLALAIYTPEDPPIDYAYLIEDLARRDSPVIVVSPKGTLGEIVDKDRVYVLEV
MGSDKIHHHHHHMFTSFAFVTGAFVLFGCDNGRNSDTICKNNPELCEDLHKDSWCRYEKGDLIRQRFILKTTPNPTGKQIYDQLRFLEVYSKCIELASGVQHKVNVQRTNDRLRAFGISVQNLEELQESTKGSQDPYLAYYHWSRLDDAKSLAVLIKAEKEGQISDPELLSKLAIYYLKTDAARAKKLYLDVLGMVDADHLDPDWLLGLATASRTLGDLDGSYLYSRANIALTKQSVNEAQMLALLTGDKTKAAMLDSEAEQLAKAVSSGNFAGSAIEKRLRAEIDTERAKIEPVAPLAQD
MGSDKIHHHHHHMFYFTVNNPQDPLSTEIVETNRRDLAFWHRLRPKDDDDLATAINKICVRTGLSRKLIAACLFSICFLPYLPNFHKLVEKLGHLDMARINAITKAGEKVPSEKRELFDAYLVDYLTPRAEAQCLPQASSISAMMRKFIAQHCPDDKASSATNDGSIRYRRNNKGGISITVDATASEVTEIKAALEQMSKDKDCTPGTSLLHIIRGLPTKVVLNTYGTKDSPEYLEGGTWLSKEQSEFWKTRTTSSRDMDAAHFSYTTAYAPTREMRVYIKGLRTTCSVPGCSVAVENCQLDHIIPWGEGGPTTPWNIHPLCVFHHIQKTEGRLQCYPLPDGTVLFLVDGIPVFSIPDGPLSKSNKTWGTKFGKYMERRIAA
MGSDKIHHHHHHMGACQPNNSQLYIGIDGGGSKCRATIYTAEHQKLGTGVAGRANPLHGLEQTFLSITESTQLAIADAGLAPSTSQQLIAGIGLAGVNVSHYYQHIVNWQHPFKAMYLTTDLHTACIGAHNGEDGAVIITGTGSCGYAHVGDNTICLGGHGFALGDKGSGAWLGLKAVEHVLLALDGFACATSLTERLLSHFNALDAMGIVEQLAGQSSSAYAKLARSVLACAQEGDAVAISIVKEGAEYICKLARKLFAVNPSRFSMIGGLVEPLYPWLDEDVAKRISPALTPPEFGAFLFARKQFNTKA
MGSDKIHHHHHHMGDRLYFERFIWFDSQIRNGCYPNASALARKFEFDIKTAQRSIEYFRDRLGAPLDYDASRRGYRYYDPNYQLPVTHLSESELVALLASRKLLTDAAAGPLGDELEKVSNRLGALLSNGLKGKINPERAFSFRWNGMAASDPVIFEQAVSALLSCRLLTFCYYSPLAGACTARTVEPHHMINYMGAWHLIAWCRLRNDWRDFHLARVSLAHLEEEIFSPRDETTWRPCLDETFGIFQNRERFDVTIRFSADRARWVREELWHQDQSTRDLDTGEVELTIPVSHEAEILMEVLKHGSHAEVMEPIWLRDRIREEIGKMQKKY
MGSDKIHHHHHHMGEVYEKNNIDFDSIAKMLLIKYKDFILSKFKKAAPVENIRFQNLVHTNQFAQGVLGQSQHLCTVYDNPSWHSIVLETLDLDLIYKNVDKEFAKDGHAEGENIYTDYLVKELLRYFKQDFFKWCNKPDCNHCGQNTSENMTPLGSQGPNGEESKFNCGTVEIYKCNRCGNITRFPRYNDPIKLLETRKGRCGEWCNLFTLILKSFGLDVRYVWNREDHVWCEYFSNFLNRWVHVDSCEQSFDQPYIYSINWNKKMSYCIAFGKDGVVDVSKRYILQNELPRDQIKEEDLKFLCQFITKRLRYSLNDDEIYQLACRDEQEQIELIRGKTQETKSESVSAASKSSNRGRESGSADWKAQRGEDGK
MGSDKIHHHHHHMGFDVEALKAALEAHGRVIRVVVAEVKGSAPREVGAAMLVWDGGQSGTIGGGTLEFEAADAARRQDAPYRLSTHALGPDLGQCCGGAVTLLSEVYTEVNIAQLTGQVISRAVAPGPEPLAVSRILNHARAQGLAPAPQLIAGWMIEPVACATRPLWIWGAGHVGRALVEVLAPLPDYAITWVDVMRSKYPQEIPASVTALPAQEPGRLVPHAPTEAYHLILTYSHQLDLALCHRLLEHGFDFAGLIGSKTKWARFRARLAALGHRPEQIARLTCPIGMPELGKHPHAIAIGVAAELMALSQRLDLKKEHSA
MGSDKIHHHHHHMGGCCSQEGCNTRPRYLPLKCYPGLPMRATRRLDLSAVERALREVQGRFAELSQHFTEPRDPFTDEVLLNVVEGYALIDDYVARGIDLFDLQQLNLMLEINATVLCGSDPARRLEFAPHLAATEAHFFNNVEGGIKDLYNWYCAYRSDSIWKRAAGVYVRILSKPQLFIEGNNRTGSLIVSYLLMRAGLPPFVLSLDNAEGYFNPSSVIRNSAKHGVKALYELPKIKKKYAAFLEAKAPEPGKFFLNGTPVPACEGSR

Source: the DeepSol protein solubility set
